Consider three molecules from PMC7661507, “Polyelectrolyte interactions enable rapid association and dissociation in high-affinity disordered protein complexes” (Nature Communications, 2020).

Common to all, as to conditions: both partners purified
Assay [1] has as its target T1, unlabeled recombinant wild-type human histone H1.0 (human, UniProt P07305 1-194).
T1 construct: linker histone H1.0, human, H1F0 gene, UniProt P07305, wild type; also called linker histone H1.0; unlabeled H1; source: bought: New England Biolabs (cat. # M2501S)
Briefly: single-molecule FRET of freely diffusing molecules; 50 pM donor/acceptor-labeled ProTα titrated with unlabeled H1; fraction bound from transfer efficiency histograms; 10 mM TBS, 0.1 mM EDTA, 200 mM ionic strength (KCl), 140 mM β-mercaptoethanol, 0.01% Tween 20.

The target in assay [2] is T1, unlabeled recombinant wild-type human …. Description: single-molecule FRET of freely diffusing molecules, competition titration; 50 pM labeled ProTα and constant unlabeled H1 (10 nM; also 1 µM and 20 µM in Fig. 2), unlabeled ProTα varied; TBS, 200 mM ionic strength; coupled binding equilibria fit.
For assay [3] the target is unchanged. Briefly: single-molecule FRET of surface-immobilized molecules; biotinylated labeled ProTα immobilised on neutravidin/PEG surface, nanomolar unlabeled H1 in solution; degassed TBS in D2O, 200 mM ionic strength, oxygen scavenger; two-state hidden Markov model of photon time traces.

Residue numbers refer to the chain shown, from its start. Names may count otherwise.

B1: ProTα E56C/D110C labeled with Alexa Fluor 488/594 (natural protein)
chain: SDAAVDTSSEITTKDLKEKKEVVEEAENGRDAPANGNAENEENGEQEADNEVDEECEEGGEEEEEEEEGDGEEEDGDEDEEAESATGKRAAEDDEDDDVDTKKQKTDEDC
modifications: Alexa Fluor 488 maleimide and Alexa Fluor 594 maleimide on the cysteines at positions 56 and 110
Broadly, the Kd is the constant that tells how readily two partners part at equilibrium. Consider B1, for which the Kd in assay [1] came to 0.73 nM.

B2: unlabeled ProTα (natural protein, human, UniProt P06454 1-111, looked up)
chain: MSDAAVDTSSEITTKDLKEKKEVVEEAENGRDAPANGNAENEENGEQEADNEVDEEEEEGGEEEEEEEEGDGEEEDGDEDEEAESATGKRAAEDDEDDDVDTKKQKTDEDD
notes: prothymosin α (ProTα), human, PTMA gene, UniProt P06454; The main text calls it only 'unlabeled ProTα'; also called prothymosin α; source: E. coli C41, purified (IMAC, tag cleavage, RP-HPLC)
For B2, in assay [2], the dissociation constant (Kd) is 1.1 nM.

B3: Avi-Tag-ProTα E56C/D110C labeled with Cy3B/LD650 (natural protein)
chain: B2 chain with E57C, D111C
modifications: biotin on Lys12 of the Avi-tag; Cy3B maleimide and LD650 maleimide on the cysteines at positions 56 and 110
By koff is commonly meant a measure of how fast the partners let go of each other. Usually kon stands for the second-order rate constant of association. For B3, in assay [3], the Kd stood at 1.2 ± 0.1 nM, the koff came out at 1.7 ± 0.1 s⁻¹ and the kon was 1.45e+09 M⁻¹ s⁻¹.
